In the supplement of paper PMC10724198:
± gives the standard deviation of the averaged measurements.

System: Saccharomyces cerevisiae
Experiment: protein stability index of tFT-peptide fusion (C-terminal peptide) (PSI (0-1 scale)); higher = more stable (slower turnover)
Conditions: genetic background: wild type; temperature: 30 C
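Note: PSI is a weighted mean of sequencing reads over stability bins, variants kept only with over 10 reads, mCherry proximal and sfGFP distal, peptide attached via GGGS linker.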

Sequence	protein stability index
HRKKTKNVTHVK	0.6485 ± 0.0062
FPLPHPCPPPPP	0.694 ± 0.017
VAMAGQQLYVTI	0.665 ± 0.07
NKNVGLKKSEKS	0.711 ± 0.019
GLMGWGLFCGFG	0.7759 ± 0.0043
GGLLSTVVVRVL	0.524 ± 0.022
IPKDLSRLELYR	0.62 ± 0.071
RGRGEVRGVGGG	0.698 ± 0.067
SDVFGGVLSFGF	0.6613 ± 0.0008
PPLGPRPPSNST	0.6522 ± 0.0058
KRDFILFSASVD	0.627 ± 0.051
KKKNTRKTTNIK	0.708 ± 0.026
PPLAPPPPPRPP	0.6 ± 0.072
YKRKTKMQRVSN	0.627 ± 0.01
RRKEQGNHSTMR	0.663 ± 0.013
GYPSLYCLSVFM	0.6155 ± 0.0058
AVGGGTPGGVSG	0.667 ± 0.012
KMKRSNADAVEP	0.678 ± 0.03
GAPTPPGAPPPA	0.6642 ± 0.0048
LPPSPLLLTSPP	0.687 ± 0.016
IFSPHRPAVALV	0.626 ± 0.073
AGAWVRVVVGWG	0.737 ± 0.012
GSLGWRGLVRFF	0.611 ± 0.013
GDSWVVRSGVWV	0.734 ± 0.13
SPTSLPLSMPTR	0.724 ± 0.1

Sequence	protein stability index
KKNLKTKKRQNI	0.66 ± 0.01
SKKLRRNKYRNG	0.6871 ± 0.0039
VIDHALWCYVGG	0.605 ± 0.0087
ESVKVTIAKVMK	0.708 ± 0.016
QCNTFNKEKPER	0.694 ± 0.021
RSGPLFPLSCPP	0.767 ± 0.026
RVLRAELCLHEI	0.687 ± 0.065
PYTPLLLSTLAP	0.6899 ± 0.0016
VGACWGCGVCPL	0.755 ± 0.049
FPLSPPAPPLTP	0.702 ± 0.013
LGRGEVWYIDRG	0.696 ± 0.017
SARDVPPPPLTP	0.733 ± 0.018
NGQSELHDHYME	0.651 ± 0.013
PPPAPLPPRSSS	0.638 ± 0.086
KVPNEIKRYVFI	0.66446 ± 8.8e-05
ARPAPPDNVHRN	0.626 ± 0.069
YRVPWIVESFVD	0.751 ± 0.087
ASRCEVGVRWGG	0.683 ± 0.025
GAGGGSGGGQPG	0.656 ± 0.032
AIKHMVSHSPGN	0.683 ± 0.08
SLSRPASPPPHH	0.674 ± 0.12
KKKKKKKGIILD	0.737 ± 0.097
LDGIKVKFRRSL	0.698 ± 0.013
FPILLASRPSSP	0.662 ± 0.046
VGFGARGVPGGG	0.681 ± 0.019

Sequence	protein stability index
YVEVIDERYPCV	0.757 ± 0.021
GSSMLFIEQEVE	0.683 ± 0.028
LYVLHCSLIEEV	0.543 ± 0.051
VTLFFLFSLSPP	0.56 ± 0.013
LVSRLAGAVLGR	0.632 ± 0.014
SKGARQRQPPDG	0.5983 ± 0.0041
AAGWRPEGSGAF	0.725 ± 0.033
LSLFISPTACLT	0.584 ± 0.01
FPPCSFLARPFL	0.669 ± 0.019
TKRQTIEIIKKK	0.809 ± 0.11
DVHPPPPAPPPP	0.747 ± 0.12
GCGKRVVVVSEL	0.6386 ± 0.00072
CLPPSPASFHPL	0.65 ± 0.056
PPPPPHPPPHTR	0.678 ± 0.017
LWPVSMTSSFFF	0.661 ± 0.048
NKEPKRKHKNNK	0.675 ± 0.017
PVLVLPHARSPF	0.695 ± 0.021
RFVDLASFLTFR	0.587 ± 0.031
WWLARNPLLSRL	0.779 ± 0.026
PHPAPPPNPLVP	0.739 ± 0.017
RSHSTSSETNFV	0.6885 ± 0.0024
IPPPVLPSPPSP	0.672 ± 0.1
SVPPPLSPPPPP	0.668 ± 0.018
FFGNGSGPWVLV	0.6597 ± 0.0018
ASALIFTPPSFL	0.686 ± 0.12

Sequence	protein stability index
SGVLASSCPSSC	0.659 ± 0.016
PFPAFPPVTSPP	0.85 ± 0.054
SSTSPPPVTPPD	0.625 ± 0.0096
RPNTKKHKIGER	0.719 ± 0.03
VGSLGVGTFRRD	0.692 ± 0.011
PPTPLIPPLPLH	0.716 ± 0.043
TLFPPLCVFSFC	0.587 ± 0.03
GGDVCGWWCWRG	0.645 ± 0.098
LRQRAHRPYFRS	0.706 ± 0.019
RVLSWSGRQSWC	0.668 ± 0.045
NRDGWWVSNGCR	0.796 ± 0.07
TLPEVELTRQPI	0.747 ± 0.014
LLRSSASISLKK	0.738 ± 0.059
CEKGLFLRSAYV	0.65 ± 0.034
KKEQIKINIKGK	0.693 ± 0.03
SPLSPLPPALSL	0.695 ± 0.046
RLSCFLVWFPFW	0.5924 ± 0.0021
FCLGMRKHSSPL	0.731 ± 0.02
VLRGSFPWLSPV	0.7084 ± 0.0048
VALTYRSAGKWA	0.693 ± 0.058
YACFRYEYNRLR	0.679 ± 0.029
PPLPPRPAPIPP	0.663 ± 0.033
PPPTPTFPVPPH	0.6021 ± 0.00058
STGDWKLKFSKF	0.765 ± 0.066
FCGDFGGAYGLW	0.706 ± 0.047

Sequence	protein stability index
TPRLVFFLPLLP	0.658 ± 0.029
RGRRGAGTGRGP	0.657 ± 0.019
RSWCAGMAGRRR	0.6626 ± 0.0043
SFNVFKINSITV	0.562 ± 0.019
DVVPYLGYYFFC	0.578 ± 0.01
YVALSTGPLRTP	0.6828 ± 0.0065
WLKVRINFYKRK	0.52 ± 0.038
STLPPSRLSSPL	0.638 ± 0.017
AQSPRFPYRNYH	0.693 ± 0.049
VESSSMKGLLCD	0.66 ± 0.095
DRRRGVGESSFG	0.703 ± 0.025
RGSPDRPGGPLP	0.7322 ± 0.0028
VYDCDVRHFGQC	0.761 ± 0.053
QSSWVGRGVRGG	0.647 ± 0.014
HYYYPSPPSSRH	0.621 ± 0.042
CSRPPFLLFVSP	0.702 ± 0.0076
VGILTSVQKHSG	0.723 ± 0.16
PRGLGPPGWGRR	0.697 ± 0.022
LFLEGWIRKGVR	0.7427 ± 0.0059
NHLANHAGCQKT	0.667 ± 0.028
DQVWGGSEDNTV	0.76 ± 0.052
IKSKKKKKRNKR	0.638 ± 0.032
GGLSGRFRSPSL	0.754 ± 0.081
GPPPPPPFPPLP	0.708 ± 0.0076
AERGRMLSEGKW	0.701 ± 0.053

Sequence	protein stability index
PHPHRPPRSFLL	0.704 ± 0.1
PPPPHRSHLPHS	0.697 ± 0.03
TTPPPPPRHPAP	0.696 ± 0.019
PRPLFVHTSSTF	0.7105 ± 0.0024
VPVIGRSCPFLP	0.6581 ± 0.0013
CHALPPLLPDPL	0.715 ± 0.028
EGGRFTALSSTS	0.689 ± 0.039
LPPPVSPLVCLL	0.752 ± 0.047
RLSVWTFCSMVW	0.555 ± 0.0085
YNDGSNPYLSRS	0.722 ± 0.065
GGFALIWQRVCP	0.705 ± 0.011
PGPPPPPPPLYP	0.6947 ± 0.0063
RKGHKSNRSKNE	0.705 ± 0.03
VLSSARKEVIIG	0.643 ± 0.03
IQLEFEDMERGK	0.704 ± 0.11
KVGKRQGFSVYV	0.684 ± 0.022
EGGETDRSLMVV	0.66 ± 0.014
TPNYPLHPTKKI	0.681 ± 0.0084
VRGRLGGGVGRA	0.686 ± 0.079
SRIGNADAAQGM	0.732 ± 0.042
TIRKKKNRRNKE	0.731 ± 0.016
